Test results published in the supplement of paper PMC10065799, “High-throughput profiling of sequence recognition by tyrosine kinases and SH2 domains using bacterial peptide display” (eLife, 2023).

system: Fer (mouse); assay: phosphorylation enrichment, bacterial display (enrichment ratio); higher = better substrate or ligand; peptides without Tyr show the background
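Further: 11-residue human phosphosite peptides and single-mutation variants displayed on the E. coli surface, counted by deep sequencing, each peptide's frequency after selection divided by its frequency in the unselected input library; frequency after pTyr selection over input frequency; kinase dosed for 20-30% of maximal phosphorylation in three min.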

First: CTTIHYNSMCN [TP53_Y234_Y236S]
Second: FEHVGYTTLNR [CHN1_Y148_YF]
The phosphorylation enrichment of the first is higher: 0.467 for the first, 0.445 for the second.

Compared with VGTKRYRAPEV [ACVRL1_Y375_M376R], PVQAASQKVVA [HBB_Y131_Y131S] is higher in phosphorylation enrichment: 0.364 for the first, 0.414 for the second.

Going from LEITWYPFDME [RIPOR2_Y316_V320M] to SPFEVYVDKSQ [FLNA_Y373], the phosphorylation enrichment falls from 0.751 to 0.499.

First: FLRTGYSIPFG [TGM1_Y370_V372I_YF]
Second: NTGLDYIKFTW [HRH1_Y386]
The phosphorylation enrichment of the first is higher: 0.409 for the first, 0.402 for the second.

First: GKFFQYDTWNQ [IGF2_Y116_K120N]
Second: FGISGYLVDSV [MAP2K3_Y214]
The phosphorylation enrichment of the first is higher: 0.533 for the first, 0.529 for the second.

Going from YEDTLYTVLHR [UNC13D_Y61_A59T] to GRRNTCFASIA [ACADM_Y352_Y352C_YF], the phosphorylation enrichment falls from 9.1 to 0.424.

First: HLLRIYYDITD [MMP27_Y307_W304L]
Second: HLAQRYLIWEC [SCN5A_Y694_R689H]
The phosphorylation enrichment of the first is higher: 1.23 for the first, 0.616 for the second.

First: EYHRLYEEYTR [PIK3R1_Y467_D464H]
Second: REGKIYEFNQV [ZNF665_Y162_H157R_YF]
The phosphorylation enrichment of the first is lower: 2.31 for the first, 14.3 for the second.

Going from AQADIYKADFQ [IKBKG_Y308] to QRPGLYDRPGA [HNRNPH2_Y210_P209L], the phosphorylation enrichment rises from 0.354 to 0.802.

Going from DVMDLYKTLRG [NR3C1_Y30_F29L] to CVGGFYGGCNE [CTSC_Y352_Y347C], the phosphorylation enrichment rises from 0.381 to 0.566.

Compared with RGDSAYHSQRH [ERBB3_Y1132], KSIQLYDTPFE [SHB_Y297_G293S_YF] is higher in phosphorylation enrichment: 0.569 for the first, 3.47 for the second.

Going from PPTYRYERGSR [INPPL1_Y663] to INASGYRIGPA [ACSM1_Y477], the phosphorylation enrichment rises from 0.22 to 0.467.

Going from SVTCTDSPALN [TP53_Y126_Y126D] to SNVEQYQAMVT [TPR_Y965], the phosphorylation enrichment falls from 0.567 to 0.457.

First: ETLLFYGFRRS [POR_Y564_C566Y_YF]
Second: QLAPQYTYTQG [FLNA_Y1761_A1764T]
The phosphorylation enrichment of the first is lower: 0.405 for the first, 0.517 for the second.

HHIDFYKETTN [FGFR1_Y654_K656E_YF] was tested, and the phosphorylation enrichment was 0.889.

molecular target: Hck (UniProt P08631); assay: as above
Sequence (P08631 whole entry, looked up): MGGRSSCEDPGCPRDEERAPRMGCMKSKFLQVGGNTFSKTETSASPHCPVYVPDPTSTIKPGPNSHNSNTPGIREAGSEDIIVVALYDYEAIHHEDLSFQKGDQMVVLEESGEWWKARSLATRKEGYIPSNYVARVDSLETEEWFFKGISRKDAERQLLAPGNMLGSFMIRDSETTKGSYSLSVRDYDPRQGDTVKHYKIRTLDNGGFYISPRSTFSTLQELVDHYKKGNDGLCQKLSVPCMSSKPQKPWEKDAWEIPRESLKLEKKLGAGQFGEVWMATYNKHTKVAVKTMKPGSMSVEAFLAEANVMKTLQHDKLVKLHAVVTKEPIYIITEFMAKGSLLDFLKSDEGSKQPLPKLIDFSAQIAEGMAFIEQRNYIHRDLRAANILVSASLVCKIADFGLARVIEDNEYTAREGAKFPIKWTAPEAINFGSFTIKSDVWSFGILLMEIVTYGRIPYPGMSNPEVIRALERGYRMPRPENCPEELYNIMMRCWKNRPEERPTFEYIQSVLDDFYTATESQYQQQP

Going from CTTIHYNSMCN [TP53_Y234_Y236S] to FEHVGYTTLNR [CHN1_Y148_YF], the phosphorylation enrichment rises from 0.561 to 0.602.

First: VGTKRYRAPEV [ACVRL1_Y375_M376R]
Second: PVQAASQKVVA [HBB_Y131_Y131S]
The phosphorylation enrichment of the first is lower: 0.305 for the first, 0.426 for the second.

Going from LEITWYPFDME [RIPOR2_Y316_V320M] to SPFEVYVDKSQ [FLNA_Y373], the phosphorylation enrichment falls from 0.66 to 0.499.

Going from FLRTGYSIPFG [TGM1_Y370_V372I_YF] to NTGLDYIKFTW [HRH1_Y386], the phosphorylation enrichment rises from 0.423 to 0.495.

Going from GKFFQYDTWNQ [IGF2_Y116_K120N] to FGISGYLVDSV [MAP2K3_Y214], the phosphorylation enrichment falls from 0.741 to 0.471.

First: YEDTLYTVLHR [UNC13D_Y61_A59T]
Second: GRRNTCFASIA [ACADM_Y352_Y352C_YF]
The phosphorylation enrichment of the first is higher: 8.16 for the first, 0.365 for the second.

First: HLLRIYYDITD [MMP27_Y307_W304L]
Second: HLAQRYLIWEC [SCN5A_Y694_R689H]
The phosphorylation enrichment of the first is higher: 0.891 for the first, 0.79 for the second.

First: EYHRLYEEYTR [PIK3R1_Y467_D464H]
Second: REGKIYEFNQV [ZNF665_Y162_H157R_YF]
The phosphorylation enrichment of the first is higher: 5.42 for the first, 1.24 for the second.

Compared with AQADIYKADFQ [IKBKG_Y308], QRPGLYDRPGA [HNRNPH2_Y210_P209L] is higher in phosphorylation enrichment: 0.78 for the first, 1.22 for the second.

Compared with DVMDLYKTLRG [NR3C1_Y30_F29L], CVGGFYGGCNE [CTSC_Y352_Y347C] is lower in phosphorylation enrichment: 0.904 for the first, 0.838 for the second.

Compared with RGDSAYHSQRH [ERBB3_Y1132], KSIQLYDTPFE [SHB_Y297_G293S_YF] is higher in phosphorylation enrichment: 0.305 for the first, 2.17 for the second.

Going from PPTYRYERGSR [INPPL1_Y663] to INASGYRIGPA [ACSM1_Y477], the phosphorylation enrichment falls from 0.533 to 0.385.

Going from SVTCTDSPALN [TP53_Y126_Y126D] to SNVEQYQAMVT [TPR_Y965], the phosphorylation enrichment falls from 0.474 to 0.424.

First: ETLLFYGFRRS [POR_Y564_C566Y_YF]
Second: QLAPQYTYTQG [FLNA_Y1761_A1764T]
The phosphorylation enrichment of the first is higher: 0.544 for the first, 0.533 for the second.

With HHIDFYKETTN [FGFR1_Y654_K656E_YF] the phosphorylation enrichment was 1.64.

system: c-Abl (mouse); assay: as above

Compared with CTTIHYNSMCN [TP53_Y234_Y236S], FEHVGYTTLNR [CHN1_Y148_YF] is higher in phosphorylation enrichment: 0.544 for the first, 0.68 for the second.

Going from VGTKRYRAPEV [ACVRL1_Y375_M376R] to PVQAASQKVVA [HBB_Y131_Y131S], the phosphorylation enrichment rises from 0.499 to 0.571.

Compared with LEITWYPFDME [RIPOR2_Y316_V320M], SPFEVYVDKSQ [FLNA_Y373] is lower in phosphorylation enrichment: 1.32 for the first, 0.581 for the second.

Compared with FLRTGYSIPFG [TGM1_Y370_V372I_YF], NTGLDYIKFTW [HRH1_Y386] is higher in phosphorylation enrichment: 0.775 for the first, 0.902 for the second.

Going from GKFFQYDTWNQ [IGF2_Y116_K120N] to FGISGYLVDSV [MAP2K3_Y214], the phosphorylation enrichment falls from 0.78 to 0.722.

First: YEDTLYTVLHR [UNC13D_Y61_A59T]
Second: GRRNTCFASIA [ACADM_Y352_Y352C_YF]
The phosphorylation enrichment of the first is higher: 3.32 for the first, 0.556 for the second.

Going from HLLRIYYDITD [MMP27_Y307_W304L] to HLAQRYLIWEC [SCN5A_Y694_R689H], the phosphorylation enrichment falls from 1.63 to 0.929.

Compared with EYHRLYEEYTR [PIK3R1_Y467_D464H], REGKIYEFNQV [ZNF665_Y162_H157R_YF] is higher in phosphorylation enrichment: 0.653 for the first, 0.718 for the second.

Compared with AQADIYKADFQ [IKBKG_Y308], QRPGLYDRPGA [HNRNPH2_Y210_P209L] is higher in phosphorylation enrichment: 0.675 for the first, 1.2 for the second.

Going from DVMDLYKTLRG [NR3C1_Y30_F29L] to CVGGFYGGCNE [CTSC_Y352_Y347C], the phosphorylation enrichment falls from 0.521 to 0.471.

Compared with RGDSAYHSQRH [ERBB3_Y1132], KSIQLYDTPFE [SHB_Y297_G293S_YF] is higher in phosphorylation enrichment: 0.453 for the first, 1.29 for the second.

First: PPTYRYERGSR [INPPL1_Y663]
Second: INASGYRIGPA [ACSM1_Y477]
The phosphorylation enrichment of the first is higher: 0.61 for the first, 0.36 for the second.

Going from SVTCTDSPALN [TP53_Y126_Y126D] to SNVEQYQAMVT [TPR_Y965], the phosphorylation enrichment falls from 0.847 to 0.487.

Compared with ETLLFYGFRRS [POR_Y564_C566Y_YF], QLAPQYTYTQG [FLNA_Y1761_A1764T] is lower in phosphorylation enrichment: 0.542 for the first, 0.36 for the second.

HHIDFYKETTN [FGFR1_Y654_K656E_YF] was tested, and the phosphorylation enrichment was 0.575.

system: c-Src; assay: as above

Going from CTTIHYNSMCN [TP53_Y234_Y236S] to FEHVGYTTLNR [CHN1_Y148_YF], the phosphorylation enrichment rises from 0.396 to 0.466.

Going from VGTKRYRAPEV [ACVRL1_Y375_M376R] to PVQAASQKVVA [HBB_Y131_Y131S], the phosphorylation enrichment rises from 0.335 to 0.469.

Compared with LEITWYPFDME [RIPOR2_Y316_V320M], SPFEVYVDKSQ [FLNA_Y373] is lower in phosphorylation enrichment: 0.554 for the first, 0.481 for the second.

Compared with FLRTGYSIPFG [TGM1_Y370_V372I_YF], NTGLDYIKFTW [HRH1_Y386] is higher in phosphorylation enrichment: 0.44 for the first, 0.612 for the second.

Compared with GKFFQYDTWNQ [IGF2_Y116_K120N], FGISGYLVDSV [MAP2K3_Y214] is lower in phosphorylation enrichment: 0.872 for the first, 0.504 for the second.

First: YEDTLYTVLHR [UNC13D_Y61_A59T]
Second: GRRNTCFASIA [ACADM_Y352_Y352C_YF]
The phosphorylation enrichment of the first is higher: 6.38 for the first, 0.391 for the second.

First: HLLRIYYDITD [MMP27_Y307_W304L]
Second: HLAQRYLIWEC [SCN5A_Y694_R689H]
The phosphorylation enrichment of the first is higher: 1.66 for the first, 0.503 for the second.

Going from EYHRLYEEYTR [PIK3R1_Y467_D464H] to REGKIYEFNQV [ZNF665_Y162_H157R_YF], the phosphorylation enrichment falls from 4.19 to 2.08.

First: AQADIYKADFQ [IKBKG_Y308]
Second: QRPGLYDRPGA [HNRNPH2_Y210_P209L]
The phosphorylation enrichment of the first is higher: 0.925 for the first, 0.806 for the second.

Going from DVMDLYKTLRG [NR3C1_Y30_F29L] to CVGGFYGGCNE [CTSC_Y352_Y347C], the phosphorylation enrichment rises from 0.421 to 1.88.

First: RGDSAYHSQRH [ERBB3_Y1132]
Second: KSIQLYDTPFE [SHB_Y297_G293S_YF]
The phosphorylation enrichment of the first is lower: 0.462 for the first, 0.784 for the second.

Compared with PPTYRYERGSR [INPPL1_Y663], INASGYRIGPA [ACSM1_Y477] is higher in phosphorylation enrichment: 0.39 for the first, 0.433 for the second.

Compared with SVTCTDSPALN [TP53_Y126_Y126D], SNVEQYQAMVT [TPR_Y965] is lower in phosphorylation enrichment: 0.427 for the first, 0.384 for the second.

Compared with ETLLFYGFRRS [POR_Y564_C566Y_YF], QLAPQYTYTQG [FLNA_Y1761_A1764T] is higher in phosphorylation enrichment: 0.514 for the first, 0.526 for the second.

HHIDFYKETTN [FGFR1_Y654_K656E_YF] was tested, and the phosphorylation enrichment was 0.541.
